In US8129349B2, “Treatment of disease by inducing cell apoptosis” (The Regents of the University of California, priority 2000, dated 2012):

Key:
[1] = target: T1, caspase 1 (Homo sapiens, UniProt P29466); test: In vitro self-activation of recombinant caspase 1; assay type: biochemical; conditions: peptides 200 μM, 2 h, procaspase 1 (1U)
T1 construct: purchased Alexis Biochemicals 201-056
T1 sequence (P29466 120-404): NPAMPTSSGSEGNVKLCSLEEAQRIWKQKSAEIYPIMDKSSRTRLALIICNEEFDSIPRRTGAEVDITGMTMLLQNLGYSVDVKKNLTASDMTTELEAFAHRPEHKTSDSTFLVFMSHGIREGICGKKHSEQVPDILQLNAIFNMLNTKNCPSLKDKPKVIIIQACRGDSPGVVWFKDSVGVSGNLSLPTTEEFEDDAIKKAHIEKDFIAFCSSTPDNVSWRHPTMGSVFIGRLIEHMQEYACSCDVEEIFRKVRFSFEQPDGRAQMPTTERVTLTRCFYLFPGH
Procedure: FIG. 5 provides results showing the direct association of C/EBPβ-Glu^217 with procaspases 1 and 8. […] Enzyme activity was measured in the absence (control) or presence of C/EBPβ peptides (200 μM) for 2 h, using a procaspases 1 (1U) (not shown) and 8 (0.2 μg) activity assay. Values are presented as the mean±one half the range of duplicates. Panel C provides results for cells cultured on a collagen type I matrix and incubated with the indicated cell permeant, purified synthetic N-acetyl, C-aldehyde C/EBPβ tetra-peptides (10 μM) or with recombinant C/EBPβ-HA peptides as indicated, together with the Chariot reagent (Active Motif) for 4 h. Control cells were incubated without peptides (P<0.05 for all peptides containing Ala^217).
Purified recombinant C/EBPβ peptides, expressed as known in the art (See, Descombes et al., supra; and Buck et al. (1994), supra), and purified synthetic N-acetyl, C-aldehyde tetrapeptides (200 μM) (American Peptide Company) were assayed for their ability to inhibit the activity of purified human recombinant caspases 1 (catalogue # 201-056) and 8 (catalogue # 201-041-C005) (Alexis Biochemicals). The sequence of caspase 8 includes Ser217 through Asp479 cloned into an expression vector containing a 21 amino acid linker at the N-terminus. Thus, the prodomain (first 220 amino acids) is essentially missing. […] Caspase activity was determined by the release of the p-nitroaniline colorimetric (Alexis Biochemicals) substrate for caspase 1 (catalogue # 260-026) or 8 (catalogue # 260-045) within the linear part of the kinetic assay (Thornberry et al. (1997), supra; Stennicke and Salvesen, supra). […]
To delineate the role of C/EBPβ on the activation of procaspases 1 and 8, the self-activation of recombinant procaspases 1 and 8 was induced in vitro (Wilson et al., supra; Margolin et al., supra; and Earnshaw et al., supra), and the effect of purified recombinant C/EBPβ peptides, produced as described previously (Descombes et al., supra; and Buck et al., (1994), supra) on this process was determined. […]

[2] = tested on: C/EBPβ-Ala^217 stellate cells; test: Apoptosis of stellate cells from C/EBPβ-Ala^217 transgenic mice, Hoechst 33342 nuclear staining; assay type: cell-based, mouse; conditions: collagen type I; IETD or transfection 1 μg
Procedure: FIG. 2 provides results showing increased apoptosis in hepatic stellate cells from C/EBPβ^−/− and C/EBPβ-Ala^217 transgenic mice. […] Six hours after cultivation, an annexin-V-PE binding assay was performed (P<0.05 for C/EBPβ^−/− and C/EBPβ-Ala^217). […] Apoptotic cells are indicated with arrowheads.
Fluorescent labels were observed using a triple-channel fluorescence microscope. The fluorochromes utilized were FITC and Texas red (Molecular Probes). The number of annexin V (+) cells was determined by in vivo microscopy as known in the art (See, Rudel and Bokoch, supra) among all cells or those expressing the GFP indicator protein either co-transfected with C/EBPβ proteins, or alone. These values are reported herein as a percentage of annexin V (+) for cells expressing the transfected DNA. At least 1000 cells were analyzed per experimental point, including at least 100 cells expressing the transfected DNA (Buck and Chojkier, EMBO J., 15:1753-1765 (1996); Buck et al., (1994), supra; and Buck et al., (1999), supra). […] Nuclear morphology was analyzed by staining cells with Hoechst 33342 (Molecular Probes). […]

B1: C/EBPβ-Glu^217: modified murine C/EBPβ with mutation of Thr^217 to glutamic acid (SEQ ID NO:4), phosphorylation mimic (protein, listed as Mus musculus)
chain: MHRLLAWDAACLPPPPAAFRPMEVANFYYEPDCLAYGAKAARAAPRAPAAEPAIGEHERAIDFSPYLEPLAPAADFAAPAPAHHDFLSDLFADDYGAKPSKKPADYGYVSLGRAGAKAAPPACFPPPPPAALKAEPGFEPADCKRADDAPAMAAGFPFALRAYLGYQATPSGSSGSLSTSSSSSPPGTPSPADAKAAPAACFAGPPAAPAKAKAKKZVDKLSDEYKMRRERNNIAVRKSRDKAKMRNLETQHKVLELTAENERLQKKVEQLSRELSTLRNLFKQLPEPLLASAGHC
Inhibition of in vitro self-activation of caspase 1 [1]: inhibited the in vitro self-activation | Block of apoptosis of C/EBPβ-Ala^217 stellate cells [2]: blocked
